From patent US20110076342A1
Non-standard residues stand in square brackets, D forms with d. No end group written: not given here.

Target: full length PCNA's binding partners
Assay: cell-based or functional assay

| Binder | % cancer cell death, U937 cells, 30 µM peptide, 24 h, flow cytometry [%] | other results |
| --- | --- | --- |
| [dR][dR][dR][dR][dR][dR][dR][dR][dR]CCLGIPEQEY (cysteine pairing not given here) [R9-caPep (D-nonaarginine linked caPeptide, …)] | 43 | % Dead Cells, MCF 7 (breast cancer) cells, 50 µM R9-caPeptide, 48 h, flow cytometry: 91.5%; % Dead Cells, MCF 10A (non-malignant) breast cells, 50 µM R9-caPeptide, 48 h, flow cytometry: 18.2%; apoptotic cells, U937 cells, 50 uM R9-caPep: 93% |
| RRRRRRRRRCCAGIPEQEY [R9-L126A] | 8 | – |
| RRRRRRRRRCCLAIPEQEY [R9-L127A] | 47 | – |
| RRRRRRRRRCCLGAPEQEY [R9-L128A] | 21 | – |
| RRRRRRRRRCCLGIAEQEY [R9-L129A] | 80 | – |
| RRRRRRRRRCCLGIPAQEY [R9-L130A] | 45 | – |
| RRRRRRRRRCCLGIPEAEY [R9-L131A] | 93 | – |
| RRRRRRRRRCCLGIPEQAY [R9-L132A] | 88 | – |
| RRRRRRRRRCCLGIPEQEA [R9-L133A] | 7 | – |
